Among the data in US20160175384A1 are Ki and fold lower Ki than the corresponding UXL micelles values, retold here.

Square brackets hold non-standard residues; d marks the D form. * marks the point of attachment. Butanoyl(4-Ph) = O=C(CCCc1ccccc1)*; Butanoyl(4-ethynyl) = C#CCCCC(=O)*

For assay [1], the target named is human melanocortin 1 receptor (human) (UniProt Q01726). Nature of the assay: competitive binding vs Eu-NDP-alpha-MSH, time-resolved fluorescence, HCT116/hMC1R cells; concentration normalized to the targeting group.
For assay [2] the target is unchanged. Description: time-resolved lanthanide fluorescence competitive binding vs Eu-labeled NDP-alpha-MSH; 10% ligand loading.
Assay [3] has the same target. Nature of the assay: time-resolved lanthanide fluorescence competitive binding; reference 1-targeted UXL micelles.

Chain of human melanocortin 1 receptor (human) (Q01726 whole entry): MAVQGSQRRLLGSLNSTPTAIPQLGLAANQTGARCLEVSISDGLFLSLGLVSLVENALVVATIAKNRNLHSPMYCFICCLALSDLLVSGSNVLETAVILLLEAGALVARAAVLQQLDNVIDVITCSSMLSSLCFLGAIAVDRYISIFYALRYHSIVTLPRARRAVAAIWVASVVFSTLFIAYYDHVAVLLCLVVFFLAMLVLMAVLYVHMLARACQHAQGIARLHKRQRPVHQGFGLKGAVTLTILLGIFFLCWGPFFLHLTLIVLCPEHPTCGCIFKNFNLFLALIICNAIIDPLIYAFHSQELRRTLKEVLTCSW

B1: 4-targeted triblock polymer micelles (peptide, part only; not given: triblock polymer, part only)
peptide: {Butanoyl(4-Ph)}-H[dF]RWGK(Butanoyl(4-ethynyl))-NH2
modifications: not fully specified; printed as 4-phenylbutyryl-His-DPhe-Arg-Trp-Gly-Lys(hex-5-ynoyl)-NH2; also: Lys hex-5-ynoyl clicked via 1,2,3-triazole to PEG azide of triblock polymer micelle
Regarding B1, the Ki (commonly the equilibrium dissociation constant of an inhibitor or competing ligand from its target) in assay [1] stood at 11.5 nM.

B2: crosslinked triblock polymer micelles targeted with 4-phenylbutyryl-His-DPhe-Arg-Trp-Gly-Lys(hex-5-ynoyl)-NH2 (peptide, part only; not given: crosslinked triblock polymer, part only)
peptide: {Butanoyl(4-Ph)}-H[dF]RWGK(Butanoyl(4-ethynyl))-NH2
modifications: also: Fe(III)-crosslinked micelle
For the molecule B2, the Ki in assay [2] stood at 2.9 nM. In addition, the fold lower Ki than the corresponding UXL micelles in assay [3] came to 4 times.

B3: uncrosslinked triblock polymer micelles targeted with 4-phenylbutyryl-His-DPhe-Arg-Trp-Gly-Lys(hex-5-ynoyl)-NH2 (peptide, part only; not given: uncrosslinked triblock polymer, part only)
peptide: {Butanoyl(4-Ph)}-H[dF]RWGK(Butanoyl(4-ethynyl))-NH2
modifications: also: uncrosslinked micelle
For the molecule B3, in assay [2], the Ki is 12 nM. This lies in the double-digit nanomolar range.
